Assay [1] concerns the target T1, human CD28 (human, UniProt P10747 19-220).
T1 construct: whole, on cells; also called huCD28
The assay is described as follows: flow cytometry on Jurkat cells. As to the method:
(§1) Cells were harvested, checked for viability, and counted. 200'000 cells were incubated for 15 minutes at 4° C. with increasing concentrations of the antibodies diluted in FACS buffer (PBS 2% BSA). Cells were washed twice with cold FACS buffer and re-incubated for further 15 minutes at 4° C. with a suitable anti-human IgG secondary antibody. Cells were washed twice with cold FACS buffer and resuspended in 150 μl FACS buffer with a compatible viability marker. Binding of antibodies to living cells was measured by flow cytometry using a Cytoflex Platform (Beckman Coulter). Data was analyzed with FlowJo™ v10 software (BD Life Sciences) and dose-response binding curves were drawn using GraphPad Prism 9 software. AD84 GPC3 arm of the GPC3×CD3 bispecific antibody and P44, P30, P111 GPC3 arms of the GPC3×CD28 bispecific antibodies of this invention were selected from this screening process based on their specificity and binding signal intensity to GPC3 positive cells.
Examples of cells that can be used include GPC3 positive cell lines such as the gastric carcinoma cell line FU97 (JCRB1074), CD28 positive cell lines such as the leukemic Jurkat T cells as well as GPC3/CD28 double negative cell line, such as the leukemic TIB-153 cells. Cell staining and binding assessment was performed as described in Example 6. An irrelevant hIgG1 mAb served as negative isotype control and was used in all shown experiments for comparison. Binding data on FU97 cells (FIG. 2A) emphasizes the range of binding affinities for huGPC3 of the selected anti-GPC3 arms of the invention, P44 and P30. Both P44 and P30 arms are binding to membrane distal domains within GPC3. Binding on CD3 positive Jurkat cells highlight how these two CD28×GPC3 bispecific antibodies sharing the same anti-CD28 arm (e.g. AI3) bind similarly to CD28 positive cells (FIG. 2B).
A general note: Flow cytometry measures light scatter and fluorescence of single cells or particles in a stream.

Assay [2] has as its target T1, human CD28. As to the kind of experiment: flow cytometry, bivalent mAb on Jurkat cells. Here is the method: as §1
The binding capacity of the anti-CD28 antibody arms of the invention, tested as bivalent mAbs, was assessed using Jurkat cells (Jurkat Clone E6-1, ATCC TIB 152) by flow cytometry. The flow cytometry methodology was the same as the one described above. AI3 and AI10 CD28 binding arms were selected from this screening process based on their specificity and binding signal intensity to CD28 positive cells.

T1 sequence (P10747 19-220): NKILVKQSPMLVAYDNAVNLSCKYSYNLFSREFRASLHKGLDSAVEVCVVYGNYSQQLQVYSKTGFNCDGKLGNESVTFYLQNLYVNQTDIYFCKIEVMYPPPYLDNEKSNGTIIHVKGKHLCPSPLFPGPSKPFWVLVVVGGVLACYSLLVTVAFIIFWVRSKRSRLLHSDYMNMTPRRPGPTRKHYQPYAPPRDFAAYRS

B1: AI3P30/N (bispecific antibody, human IgG1, kappa, lambda, L234A L235A)
heavy: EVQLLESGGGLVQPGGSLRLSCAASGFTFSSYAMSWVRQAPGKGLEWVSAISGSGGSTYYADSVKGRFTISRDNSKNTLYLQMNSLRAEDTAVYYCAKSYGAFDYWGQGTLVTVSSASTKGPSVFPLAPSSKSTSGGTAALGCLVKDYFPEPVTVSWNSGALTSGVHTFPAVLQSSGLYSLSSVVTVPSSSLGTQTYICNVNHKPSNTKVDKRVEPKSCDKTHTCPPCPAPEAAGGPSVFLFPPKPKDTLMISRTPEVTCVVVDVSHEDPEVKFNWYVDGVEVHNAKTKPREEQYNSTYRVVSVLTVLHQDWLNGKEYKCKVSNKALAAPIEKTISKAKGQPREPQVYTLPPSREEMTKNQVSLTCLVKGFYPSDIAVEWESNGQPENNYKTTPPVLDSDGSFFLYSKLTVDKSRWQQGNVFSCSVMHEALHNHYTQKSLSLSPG
light 1: not shown
light 2: QSALTQPASVSGSPGQSITISCTGTSSDVPEDALVSWYQQHPGKAPKLMIYYDSTRPSGVSNRFSGSKSGNTASLTISGLQAEDEADYYCSSWDFGTGSKVFGGGTKLTVLGQPKAAPSVTLFPPSSEELQANKATLVCLISDFYPGAVTVAWKADSSPVKAGVETTTPSKQSNNKYAASSYLSLTPEQWKSHRSYSCQVTHEGSTVEKTVAPTECS
notes: also called GPC3×CD28 bispecific antibody
B1: the binding result with human CD28 [1] is “binds”.

B2: AI3P44/N (bispecific antibody, human IgG1, kappa, lambda, L234A L235A)
heavy: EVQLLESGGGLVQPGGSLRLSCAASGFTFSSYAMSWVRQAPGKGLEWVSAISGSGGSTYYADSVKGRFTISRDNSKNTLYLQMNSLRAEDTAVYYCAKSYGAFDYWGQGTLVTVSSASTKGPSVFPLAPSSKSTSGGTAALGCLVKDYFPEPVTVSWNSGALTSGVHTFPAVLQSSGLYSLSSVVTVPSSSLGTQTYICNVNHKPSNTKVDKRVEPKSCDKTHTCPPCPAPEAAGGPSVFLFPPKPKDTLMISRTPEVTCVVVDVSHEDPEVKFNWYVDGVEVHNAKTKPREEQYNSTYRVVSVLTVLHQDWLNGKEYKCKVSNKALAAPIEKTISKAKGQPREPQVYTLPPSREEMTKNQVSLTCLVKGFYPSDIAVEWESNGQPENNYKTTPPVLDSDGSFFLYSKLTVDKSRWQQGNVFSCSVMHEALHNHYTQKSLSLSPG
light 1: not shown
light 2: NFMLTQPHSVSESPGKTVTISCTRSSGSISYDDVQWYQQRPGSSPTTVIYFNNLRPSGVPDRFSGSIDSSSNSASLTISGLKTEDEADYYCQSWDLRHRVFGGGTKLTVLGQPKAAPSVTLFPPSSEELQANKATLVCLISDFYPGAVTVAWKADSSPVKAGVETTTPSKQSNNKYAASSYLSLTPEQWKSHRSYSCQVTHEGSTVEKTVAPTECS
notes: also called GPC3×CD28 bispecific antibody; GPC3×CD28 κλ-body
B2: in the assay with human CD28 [1], the binding result is “binds”.

B3: AI10P44/N (bispecific antibody, human IgG1, kappa, lambda, L234A L235A)
heavy: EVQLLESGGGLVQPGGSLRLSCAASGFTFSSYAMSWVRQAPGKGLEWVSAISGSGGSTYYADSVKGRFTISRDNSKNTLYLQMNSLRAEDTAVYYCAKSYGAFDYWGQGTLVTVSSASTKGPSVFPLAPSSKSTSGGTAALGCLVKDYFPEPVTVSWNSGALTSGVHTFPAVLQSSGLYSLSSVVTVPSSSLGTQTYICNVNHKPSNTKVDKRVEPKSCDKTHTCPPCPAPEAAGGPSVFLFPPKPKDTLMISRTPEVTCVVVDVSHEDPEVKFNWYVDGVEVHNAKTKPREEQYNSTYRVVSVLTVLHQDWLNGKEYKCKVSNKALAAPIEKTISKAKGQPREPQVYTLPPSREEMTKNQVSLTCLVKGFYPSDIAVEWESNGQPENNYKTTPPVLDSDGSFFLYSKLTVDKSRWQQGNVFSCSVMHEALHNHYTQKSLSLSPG
light 1: DIVMTQTPLSLSVTPGQPASISCKSSGDLLEFAGKTYLYWYLQKPGQPPQLLIYEVSNRFSGVPDRFSGSGSGTDFTLKISRVEAEDVGVYYCMQAHGSKIGFTFGQGTKVEIKRTVAAPSVFIFPPSDEQLKSGTASVVCLLNNFYPREAKVQWKVDNALQSGNSQESVTEQDSKDSTYSLSSTLTLSKADYEKHKVYACEVTHQGLSSPVTKSFNRGEC
light 2: NFMLTQPHSVSESPGKTVTISCTRSSGSISYDDVQWYQQRPGSSPTTVIYFNNLRPSGVPDRFSGSIDSSSNSASLTISGLKTEDEADYYCQSWDLRHRVFGGGTKLTVLGQPKAAPSVTLFPPSSEELQANKATLVCLISDFYPGAVTVAWKADSSPVKAGVETTTPSKQSNNKYAASSYLSLTPEQWKSHRSYSCQVTHEGSTVEKTVAPTECS
notes: also called AI10-containing bispecific antibody; GPC3×CD28 bispecific antibody
For B3, the binding result in the assay with human CD28 [1] is “binds”.

B4: AI10 anti-CD28 bivalent mAb (antibody, V domains shown)
VH: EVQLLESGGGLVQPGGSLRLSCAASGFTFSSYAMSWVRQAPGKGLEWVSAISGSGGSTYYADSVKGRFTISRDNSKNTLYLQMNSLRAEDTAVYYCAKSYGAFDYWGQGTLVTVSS
VL: DIVMTQTPLSLSVTPGQPASISCKSSGDLLEFAGKTYLYWYLQKPGQPPQLLIYEVSNRFSGVPDRFSGSGSGTDFTLKISRVEAEDVGVYYCMQAHGSKIGFTFGQGTKVEIK
Turning to B4, the binding result with human CD28 [2] was “binds”.

These data come from patent US20230287146A1 (LAMKAP BIO GAMMA, published 2023).
